Experimental data reported in patent US20220372155A1 (LYVGEN BIOPHARMA, published 2022).

Legend:
[1] = molecular target: T1, human CD40 expressed on CHO cells (human, UniProt P25942 21-277); test: FACS, CHO cells
T1 construct: whole, on cells; also used for the reporter cells over-expressing human CD40; also called cellular CD40; CHO-CD40 cells

[2] = molecular target: T2, human PD-L1 expressed on CHO cells (human, UniProt Q9NZQ7 19-290); test: FACS, CHO cells
T2 construct: whole, on cells; also used for human PD-L1 on Raji cells in the reporter assay; also called cell surface PD-L1; Raji-PD-L1 cells

[3] = molecular target: T3, Ly090 (human CD40 ECD protein with His tag) (human, UniProt P25942 21-193); test: bridging ELISA, coated CD40 ECD-His, soluble PD-L1 ECD-mFc
T3 construct: extracellular domain; also called human CD40 ECD protein (His tag); recombinant human CD40; not shown: His tag
Protocol: (§1) Exemplary anti-PD-L1/CD40 bi-specific antibodies were analyzed by ELISA for their simultaneous binding to recombinant human PD-L1 and human CD40. Briefly, Ly090 (human CD40 ECD protein with His tag) was diluted and coated onto an ELISA plate with a volume of 100 μL/well by incubation at 4° C. overnight. The next day, the plate was blocked by PBST-BSA buffer, then serially diluted samples of anti-PD-L1/CD40 bi-specific antibodies were pipetted into appropriate wells at 50 μL/well, and the plate was incubated for 1 h followed by Washing. Human PD-L1 ECD protein (mouse IgG2a Fc tag) was added into the plate at 50 μL/well. After 1-hour incubation at room temperature, HRP-conjugated anti-Mouse IgG, Fc G2a antibody was added into the plate at 100 μL/well. The plate was incubated for 1 hour at room temperature followed by washing. TMB substrate solution was added at 100 μL/well and the color development was stopped by adding 100 uL/well Stop Solution (2N H₂SO₄). Absorbance at 450 nm and 620 nm was read by Tecan F200 Pro plate reader. GraphPad 7.0, “[Agonist] vs. response—Variable slope (four parameters)” was used to plot the binding data and calculate binding EC50 values.

[4] = molecular target: T4, Human PD-L1 ECD protein (mouse IgG2a Fc tag) (human, UniProt Q9NZQ7 19-238); test: as above
T4 construct: extracellular domain; also called recombinant human PD-L1; not shown: mouse IgG2a Fc tag
Protocol: as §1

[5] = molecular target: T5, human PD-1 expressed on CHO cells (human, UniProt Q15116 25-288); test: FACS, CHO cells
T5 construct: whole, on cells; also used for human PD-1 on Jurkat reporter cells; also called Jurkat/NFkB-Luci/PD-1 cells

[6] = molecular target: T3, Ly090 (human CD40 ECD protein with His …); test: bridging ELISA, coated CD40 ECD-His, soluble PD-1 ECD-mFc
Protocol: (§2) Briefly, human CD40 ECD protein (His tag) was diluted and coated onto an ELISA plate with a volume of […] by incubation at 4° C. overnight. […] After 1-hour incubation at room temperature, HRP-conjugated anti-Mouse IgG (H+L) antibody was added into the plate at 100 μL/well. The plate was incubated for 1 hour at room temperature followed by washing. TMB substrate solution was added at 100 μL/well and the color development was stopped by adding 100 uL/well Stop Solution (2N H2SO4). Absorbance at 450 nm and 620 nm was read by Tecan F200 Pro plate reader. GraphPad 7.0, “[Agonist] vs. response—Variable slope (four parameters)” was used to plot the binding data and calculate binding EC50 values.

[7] = molecular target: T6, Human PD-1-ECD protein (mouse IgG2a Fc tag) (human, UniProt Q15116 25-170); test: as above
T6 construct: extracellular domain; also called soluble human recombinant PD-1; not shown: mouse IgG2a Fc tag
Protocol: as §2

Measured: binding result

T1 sequence (P25942 21-277): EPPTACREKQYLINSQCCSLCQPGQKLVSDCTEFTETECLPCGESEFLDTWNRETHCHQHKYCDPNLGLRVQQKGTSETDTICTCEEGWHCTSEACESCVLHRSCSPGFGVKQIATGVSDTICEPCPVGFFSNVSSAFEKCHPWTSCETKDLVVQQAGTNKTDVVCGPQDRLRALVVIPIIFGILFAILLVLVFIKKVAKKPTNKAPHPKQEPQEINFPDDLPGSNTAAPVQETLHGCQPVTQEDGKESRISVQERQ
T3 sequence (P25942 21-193): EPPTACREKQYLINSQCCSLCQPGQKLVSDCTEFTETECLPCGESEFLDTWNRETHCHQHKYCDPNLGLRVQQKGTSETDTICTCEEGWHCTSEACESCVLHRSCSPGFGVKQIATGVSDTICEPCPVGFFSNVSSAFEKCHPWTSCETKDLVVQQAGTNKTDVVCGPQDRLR
T4 sequence (Q9NZQ7 19-238): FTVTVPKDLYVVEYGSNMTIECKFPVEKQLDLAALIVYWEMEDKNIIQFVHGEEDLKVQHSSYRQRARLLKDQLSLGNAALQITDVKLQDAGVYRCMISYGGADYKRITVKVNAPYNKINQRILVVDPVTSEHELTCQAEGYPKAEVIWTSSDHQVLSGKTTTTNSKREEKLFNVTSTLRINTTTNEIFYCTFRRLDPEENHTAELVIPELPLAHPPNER
T6 sequence (Q15116 25-170): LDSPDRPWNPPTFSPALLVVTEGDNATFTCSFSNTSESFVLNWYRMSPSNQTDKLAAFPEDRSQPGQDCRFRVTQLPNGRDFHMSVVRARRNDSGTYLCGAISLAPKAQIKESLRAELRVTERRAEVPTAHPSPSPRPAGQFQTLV
T5 sequence (Q15116 25-288): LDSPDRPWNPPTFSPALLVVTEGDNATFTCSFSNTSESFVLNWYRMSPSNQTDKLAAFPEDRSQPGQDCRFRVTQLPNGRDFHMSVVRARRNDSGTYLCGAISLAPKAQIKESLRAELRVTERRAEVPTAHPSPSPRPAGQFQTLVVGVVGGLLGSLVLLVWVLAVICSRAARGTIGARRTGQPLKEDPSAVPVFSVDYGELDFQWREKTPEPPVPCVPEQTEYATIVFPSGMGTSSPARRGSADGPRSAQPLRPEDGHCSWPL
T2 sequence (Q9NZQ7 19-290): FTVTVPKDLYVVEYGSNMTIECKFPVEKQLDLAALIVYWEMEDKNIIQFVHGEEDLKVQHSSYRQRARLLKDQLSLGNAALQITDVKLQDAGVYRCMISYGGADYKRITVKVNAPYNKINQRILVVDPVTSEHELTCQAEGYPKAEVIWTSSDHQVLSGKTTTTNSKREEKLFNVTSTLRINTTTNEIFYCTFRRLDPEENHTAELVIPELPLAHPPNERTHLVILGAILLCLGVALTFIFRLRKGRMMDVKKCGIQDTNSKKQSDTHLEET

B1: Ly301 (bispecific antibody, human IgG1, kappa)
heavy: QVQLVQSGAEVKKPGASVKVSCKASGYTFTDFWMSWVRQAPGQGLEWMGQIYPNTGTTHSNEKFKGRVTMTRDTSTSTVYMELSSLRSEDTAVYYCARSYHISTTPNWFAYWGQGTLVTVSSASTKGPSVFPLAPSSKSTSGGTAALGCLVKDYFPEPVTVSWNSGALTSGVHTFPAVLQSSGLYSLSSVVTVPSSSLGTQTYICNVNHKPSNTKVDKKVEPKSCDKTHTCPPCPAPELLGPSVFLFPPKPKDTLMISRTPEVTCVVVDVSHEDPEVKFNWYVDGVEVHNAKTKPREEQYNSTYRVVSVLTVLHQDWLNGKEYKCKVSNKALPAPIEKTISKAKGQPREPQVYTLPPSREEMTKNQVSLTCLVKGFYPSDIAVEWESNGQPENNYKTTPPVLDSDGSFFLYSKLTVDKSRWQQGNVFSCSVMHEALHNHYTQKSLSLSPGGGGGSGGGGSGGGGSGGGGSDIQMTQSPSSLSASVGDRVTITCKASQNIYIYLNWYQQKPGKAPKLLIYNTNNLQTGVPSRFSGSGSGTDFTLTISSLQPEDFATYYCLQHSSRRTFGGGTKVEIKGGGGSGGGGSGGGGSGGGGSQVQLVESGGGLVQPGGSLKLSCATSGFNFNDYFMNWVRQASGKGLEWVGQIRNKNYNYATYYTESLEGRVTISRDDSKNTAYLQMNSLKTEDTAVYYCTSYYYDGFADYFDYWGQGTTVTVSS
light: DIQMTQSPSSLSASVGDRVTITCKASQNVYKKLEWYQQKPGKVPKVLIYHTNILQTGVPSRFSGSGSGTDYTLTISSLQPEDVATYYCYQWNSGPTFGGGTKVEIKRTVAAPSVFIFPPSDEQLKSGTASVVCLLNNFYPREAKVQWKVDNALQSGNSQESVTEQDSKDSTYSLSSTLTLSKADYEKHKVYACEVTHQGLSSPVTKSFNRGEC
notes: Ly076 HC (IgG1 mutated Fc)-TM740 scFv VL-VH + Ly076 LC
binds: [1] | [2] | [3] | [4]

B2: Ly338 (bispecific antibody, human IgG1, kappa)
heavy: QVQLVQSGAEVKKPGASVKVSCKASGYTFTDFWMSWVRQAPGQGLEWMGQIYPNTGTTHSNEKFKGRVTMTRDTSTSTVYMELSSLRSEDTAVYYCARSYHISTTPNWFAYWGQGTLVTVSSASTKGPSVFPLAPSSKSTSGGTAALGCLVKDYFPEPVTVSWNSGALTSGVHTFPAVLQSSGLYSLSSVVTVPSSSLGTQTYICNVNHKPSNTKVDKKVEPKSCDKTHTCPPCPAPELLGPSVFLFPPKPKDTLMISRTPEVTCVVVDVSHEDPEVKFNWYVDGVEVHNAKTKPREEQYNSTYRVVSVLTVLHQDWLNGKEYKCKVSNKALPAPIEKTISKAKGQPREPQVYTLPPSREEMTKNQVSLTCLVKGFYPSDIAVEWESNGQPENNYKTTPPVLDSDGSFFLYSKLTVDKSRWQQGNVFSCSVMHEALHNHYTQKSLSLSPGGGGGSGGGGSGGGGSGGGGSQVQLVESGGGLVQPGGSLKLSCATSGFNFNDYFMNWVRQASGKGLEWVGQIRNKNYNYATYYTESLEGRVTISRDDSKNTAYLQMNSLKTEDTAVYYCTSYYYDGFADYFDYWGQGTTVTVSSGGGGSGGGGSGGGGSGGGGSDIQMTQSPSSLSASVGDRVTITCKASQNIYIYLNWYQQKPGKAPKLLIYNTNNLQTGVPSRFSGSGSGTDFTLTISSLQPEDFATYYCLQHSSRRTFGGGTKVEIK
light: B1 light
notes: Ly076 HC (IgG1 mutated Fc)-TM740 scFv VH-VL + Ly076 LC
binds: [1] | [2] | [3] | [4]

B3: Ly608 (bispecific antibody, human IgG1, kappa)
heavy: QVTLKESGPALVKPTQTLTLTCTFSGFSLSTSGTCVSWIRQPPGKALEWLATICWEDSKGYNPSLKSRLTISKDTSKNQAVLTMTNMDPVDTATYYCARREDSGYFWFPYWGQGTLVTVSSASTKGPSVFPLAPSSKSTSGGTAALGCLVKDYFPEPVTVSWNSGALTSGVHTFPAVLQSSGLYSLSSVVTVPSSSLGTQTYICNVNHKPSNTKVDKKVEPKSCDKTHTCPPCPAPELLGPSVFLFPPKPKDTLMISRTPEVTCVVVDVSHEDPEVKFNWYVDGVEVHNAKTKPREEQYNSTYRVVSVLTVLHQDWLNGKEYKCKVSNKALPAPIEKTISKAKGQPREPQVYTLPPSREEMTKNQVSLTCLVKGFYPSDIAVEWESNGQPENNYKTTPPVLDSDGSFFLYSKLTVDKSRWQQGNVFSCSVMHEALHNHYTQKSLSLSPGGGGGSGGGGSGGGGSGGGGSDIQMTQSPSSLSASVGDRVTITCLASEDISNDLAWYQQKPGKAPKLLIYFVDRLLDGVPSRFSGSGSGTDFTLTISSLQPEDFATYYCQQSYKYPPTFGQGTKLEIKGGGGSGGGGSGGGGSGGGGSEVQLVESGGGLVQPGGSLRLSCAASGFTFTNYGLHWVRQAPGKGLEWVSSISPSGGVTYYRDSVKGRFTISRDNSKNTLYLQMNSLRAEDTAVYYCAKPFLGWGGANWIAHWGQGTLVTVSS
light: NIQMTQSPSSLSASVGDRVTITCKAGQNVNNYLAWYQQKPGKAPKVLIFNANSLQTGVPSRFSGSGSGTDFTLTISSLQPEDFATYYCQQYNSWPTFGGGTKVEIKRTVAAPSVFIFPPSDEQLKSGTASVVCLLNNFYPREAKVQWKVDNALQSGNSQESVTEQDSKDSTYSLSSTLTLSKADYEKHKVYACEVTHQGLSSPVTKSFNRGEC
notes: Ly516 HC (IgG1 mutated Fc)-TM559 scFv VL-VH + Ly516 LC
binds: [1] | [5] | [6] | [7]

B4: Ly609 (bispecific antibody, human IgG1, kappa)
heavy: QVTLKESGPALVKPTQTLTLTCTFSGFSLSTSGTCVSWIRQPPGKALEWLATICWEDSKGYNPSLKSRLTISKDTSKNQAVLTMTNMDPVDTATYYCARREDSGYFWFPYWGQGTLVTVSSASTKGPSVFPLAPSSKSTSGGTAALGCLVKDYFPEPVTVSWNSGALTSGVHTFPAVLQSSGLYSLSSVVTVPSSSLGTQTYICNVNHKPSNTKVDKKVEPKSCDKTHTCPPCPAPELLGPSVFLFPPKPKDTLMISRTPEVTCVVVDVSHEDPEVKFNWYVDGVEVHNAKTKPREEQYNSTYRVVSVLTVLHQDWLNGKEYKCKVSNKALPAPIEKTISKAKGQPREPQVYTLPPSREEMTKNQVSLTCLVKGFYPSDIAVEWESNGQPENNYKTTPPVLDSDGSFFLYSKLTVDKSRWQQGNVFSCSVMHEALHNHYTQKSLSLSPGGGGGSGGGGSGGGGSGGGGSEVQLVESGGGLVQPGGSLRLSCAASGFTFTNYGLHWVRQAPGKGLEWVSSISPSGGVTYYRDSVKGRFTISRDNSKNTLYLQMNSLRAEDTAVYYCAKPFLGWGGANWIAHWGQGTLVTVSSGGGGSGGGGSGGGGSGGGGSDIQMTQSPSSLSASVGDRVTITCLASEDISNDLAWYQQKPGKAPKLLIYFVDRLLDGVPSRFSGSGSGTDFTLTISSLQPEDFATYYCQQSYKYPPTFGQGTKLEIK
light: B3 light
notes: Ly516 HC (IgG1 mutated Fc)-TM559 scFv VH-VL + Ly516 LC
binds: [1] | [5] | [6] | [7]
